Each block holds one molecule with its values, some of them ahead of it.
How the values were obtained:
[1] = target: human α5β1 integrin, full-length (Millipore CC1027) (human) (UniProt P08648); assay: BLI; inhibition: α5β1 integrin at 35.5 µg/mL preincubated one hour at room temperature with or without RGD peptide at 50 µg/mL, then LOXL2-coated AR2G sensor dipped in it; same buffer as the kinetics
SPARC = target: T1, SPARC (UniProt P09486 18-303); assay: SPR; BIAcore T100; ligands covalently immobilised by amine coupling on CM5 or CM3 (collagen XVII) sensor chips; LOXL2, SRCR 1-2 and SRCR 1-4 injected in 10 mM Hepes pH 7.4, 150 mM NaCl, 0.05% P20
T1 construct: SPARC; also called immobilized SPARC
T1 sequence (looked up): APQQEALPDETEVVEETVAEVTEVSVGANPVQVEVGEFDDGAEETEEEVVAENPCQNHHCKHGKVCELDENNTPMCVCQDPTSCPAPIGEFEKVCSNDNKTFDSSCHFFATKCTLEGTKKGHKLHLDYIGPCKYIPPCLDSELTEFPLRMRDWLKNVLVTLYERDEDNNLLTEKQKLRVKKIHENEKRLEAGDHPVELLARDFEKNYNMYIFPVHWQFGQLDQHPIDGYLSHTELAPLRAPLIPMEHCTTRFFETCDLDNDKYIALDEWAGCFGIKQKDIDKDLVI

[2] = target: T2, human α5β1 integrin, full-length (Millipore CC1027) (human, UniProt P08648 42-1049; P05556 21-798); assay: SPR; SPR imaging, BIAcore Flexchip; α5β1 integrin (29.3 µg/mL) as analyte recirculated over ECM arrays including spotted LOXL2; 10 mM Hepes pH 7.4, 150 mM NaCl, 50 mM β-octyl-D-glucopyranoside, 2 mM MgCl2, 2 mM MnCl2; settings: both partners purified
T2 construct: integrin alpha-5 subunit of human α5β1 integrin; integrin beta-1 subunit of human α5β1 integrin; Used in buffer with 50 mM β-octyl-D-glucopyranoside, MgCl2 and MnCl2; The source is told for the BLI assays only; also called full-length α5β1 integrin; source: bought: Millipore, Merck, CC1027
T2 sequence (P08648 42-1049, chain 1 of 2): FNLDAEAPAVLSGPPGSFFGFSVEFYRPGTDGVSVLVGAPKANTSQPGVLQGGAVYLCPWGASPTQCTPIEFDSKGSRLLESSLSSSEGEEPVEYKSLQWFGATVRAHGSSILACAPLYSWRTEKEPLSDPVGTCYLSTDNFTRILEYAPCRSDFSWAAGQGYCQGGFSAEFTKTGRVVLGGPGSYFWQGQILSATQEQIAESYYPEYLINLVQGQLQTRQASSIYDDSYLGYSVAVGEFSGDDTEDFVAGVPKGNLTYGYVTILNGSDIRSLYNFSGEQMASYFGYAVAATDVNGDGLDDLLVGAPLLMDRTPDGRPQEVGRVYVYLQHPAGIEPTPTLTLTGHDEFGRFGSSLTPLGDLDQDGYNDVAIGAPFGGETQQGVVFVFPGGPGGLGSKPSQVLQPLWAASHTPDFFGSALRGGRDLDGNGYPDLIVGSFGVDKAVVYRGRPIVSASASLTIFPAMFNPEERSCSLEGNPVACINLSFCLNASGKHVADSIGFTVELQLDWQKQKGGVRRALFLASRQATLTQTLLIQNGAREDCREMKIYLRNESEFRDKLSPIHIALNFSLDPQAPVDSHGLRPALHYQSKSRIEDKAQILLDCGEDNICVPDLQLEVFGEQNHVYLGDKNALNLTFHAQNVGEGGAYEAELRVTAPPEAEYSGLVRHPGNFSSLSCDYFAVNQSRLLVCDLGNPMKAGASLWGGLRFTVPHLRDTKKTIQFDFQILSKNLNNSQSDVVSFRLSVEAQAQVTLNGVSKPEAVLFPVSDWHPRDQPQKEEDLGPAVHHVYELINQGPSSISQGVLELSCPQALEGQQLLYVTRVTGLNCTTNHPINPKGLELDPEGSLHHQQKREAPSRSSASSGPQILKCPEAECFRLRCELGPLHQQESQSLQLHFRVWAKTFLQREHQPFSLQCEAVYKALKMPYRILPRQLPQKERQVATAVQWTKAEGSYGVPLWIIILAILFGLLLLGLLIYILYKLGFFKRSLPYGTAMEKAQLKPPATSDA
T2 sequence (P05556 21-798, chain 2 of 2): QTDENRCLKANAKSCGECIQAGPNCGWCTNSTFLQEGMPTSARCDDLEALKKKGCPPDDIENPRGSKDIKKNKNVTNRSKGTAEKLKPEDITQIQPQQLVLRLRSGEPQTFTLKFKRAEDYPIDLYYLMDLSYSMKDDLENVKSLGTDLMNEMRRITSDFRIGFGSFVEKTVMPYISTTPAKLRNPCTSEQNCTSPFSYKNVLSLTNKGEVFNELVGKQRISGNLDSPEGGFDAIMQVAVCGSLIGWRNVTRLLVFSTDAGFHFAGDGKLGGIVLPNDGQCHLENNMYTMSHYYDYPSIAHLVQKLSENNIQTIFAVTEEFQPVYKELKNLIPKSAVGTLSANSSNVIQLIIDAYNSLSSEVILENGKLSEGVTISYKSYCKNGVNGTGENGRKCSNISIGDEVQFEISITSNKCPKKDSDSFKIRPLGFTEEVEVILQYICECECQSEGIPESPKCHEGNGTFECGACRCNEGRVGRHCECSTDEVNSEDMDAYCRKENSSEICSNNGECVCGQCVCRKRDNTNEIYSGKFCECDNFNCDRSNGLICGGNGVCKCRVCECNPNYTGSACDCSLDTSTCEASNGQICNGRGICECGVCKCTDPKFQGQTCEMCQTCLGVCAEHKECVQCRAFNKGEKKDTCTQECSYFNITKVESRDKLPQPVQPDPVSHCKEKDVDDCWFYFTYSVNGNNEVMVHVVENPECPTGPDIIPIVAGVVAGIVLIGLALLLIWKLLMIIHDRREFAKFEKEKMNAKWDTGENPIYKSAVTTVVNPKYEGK

[3] = target: T2, human α5β1 integrin, full-length …; assay: BLI; inhibition: α5β1 integrin at 35.5 µg/mL preincubated one hour at room temperature with or without RGD peptide at 50 µg/mL, then LOXL2-coated AR2G sensor dipped in it; same buffer as the kinetics; settings: both partners purified

human α5β1 integrin, full-length (Millipore CC1027) (human), sequence (P08648 42-1049, chain 1 of 2): as the sequence (P08648 42-1049, chain 1 of 2) above
human α5β1 integrin, full-length (Millipore CC1027) (human), sequence (P05556 21-798, chain 2 of 2, further chain): as the sequence (P05556 21-798, chain 2 of 2) above

percent decrease of the binding of α5β1 integrin to LOXL2 [1]: 24.9%
Molecule: RGD peptide (Sigma-Aldrich, A8052)

Kd (SPARC; both partners purified): 21.4 nM
B1: LOXL2 N-terminal scavenger receptor cysteine-rich domains SRCR 1-2 (residues 58-302) (domain or fragment, UniProt Q9Y4K0 58-302, looked up)
chain: LRLAGQKRKHSEGRVEVYYDGQWGTVCDDDFSIHAAHVVCRELGYVEAKSWTASSSYGKGEGPIWLDNLHCTGNEATLAACTSNGWGVTDCKHTEDVGVVCSDKRIPGFKFDNSLINQIENLNIQVEDIRIRAILSTYRKRTPVMEGYVEVKEGKTWKQICDKHWTAKNSRVVCGMFGFPGERTYNTKVYKMFASRRKQRYWPFSMDCTGTEAHISSCKLGPQVSLDPMKNVTCENGLPAVVSCV
notes: LOXL2, SRCR domains 1-2, residues 58-302; also called SRCR 1-2 domain; source: expressed as recombinant protein as previously described [62]

KD1 (site 1, heterogeneous ligand model) (SPARC): 37.8 nM
KD2 (site 2, heterogeneous ligand model) (SPARC): 41.5 nM
ka1 (site 1, heterogeneous ligand model) (SPARC): 186000 M⁻¹ s⁻¹
ka2 (site 2, heterogeneous ligand model) (SPARC): 167000 M⁻¹ s⁻¹
kd1 (site 1, heterogeneous ligand model) (SPARC): 0.00622 s⁻¹
kd2 (site 2, heterogeneous ligand model) (SPARC): 0.00769 s⁻¹
binding result [2]: binds
B2: lysyl oxidase-like 2 (LOXL2), full-length recombinant protein (enzyme, UniProt Q9Y4K0 26-774, looked up)
chain: QYDSWPHYPEYFQQPAPEYHQPQAPANVAKIQLRLAGQKRKHSEGRVEVYYDGQWGTVCDDDFSIHAAHVVCRELGYVEAKSWTASSSYGKGEGPIWLDNLHCTGNEATLAACTSNGWGVTDCKHTEDVGVVCSDKRIPGFKFDNSLINQIENLNIQVEDIRIRAILSTYRKRTPVMEGYVEVKEGKTWKQICDKHWTAKNSRVVCGMFGFPGERTYNTKVYKMFASRRKQRYWPFSMDCTGTEAHISSCKLGPQVSLDPMKNVTCENGLPAVVSCVPGQVFSPDGPSRFRKAYKPEQPLVRLRGGAYIGEGRVEVLKNGEWGTVCDDKWDLVSASVVCRELGFGSAKEAVTGSRLGQGIGPIHLNEIQCTGNEKSIIDCKFNAESQGCNHEEDAGVRCNTPAMGLQKKLRLNGGRNPYEGRVEVLVERNGSLVWGMVCGQNWGIVEAMVVCRQLGLGFASNAFQETWYWHGDVNSNKVVMSGVKCSGTELSLAHCRHDGEDVACPQGGVQYGAGVACSETAPDLVLNAEMVQQTTYLEDRPMFMLQCAMEENCLSASAAQTDPTTGYRRLLRFSSQIHNNGQSDFRPKNGRHAWIWHDCHRHYHSMEVFTHYDLLNLNGTKVAEGHKASFCLEDTECEGDIQKNYECANFGDQGITMGCWDMYRHDIDCQWVDITDVPPGDYLFQVVINPNFEVAESDYSNNIMKCRSRYDGHRIWMYNCHIGGSFSEETEKKFEHFSGLLNNQLSPQ
notes: lysyl oxidase-like 2 (LOXL2), full-length recombinant protein made in the laboratory; As a secreted recombinant protein it probably lacks its signal peptide (surmise); also called full-length LOXL2; soluble LOXL2; source: expressed as recombinant protein as previously described [62]

binding result [3]: binds
B3: Recombinant human LOXL2 (R&D Systems, 2639-AO) (enzyme, UniProt Q9Y4K0 26-774, looked up)
chain: B2 chain
notes: recombinant human lysyl oxidase-like 2 (LOXL2), commercial protein; also called immobilized LOXL2; source: bought: R&D Systems, BioTechne, 2639-AO

From paper PMC7794802, “The Interactome of Cancer-Related Lysyl Oxidase and Lysyl Oxidase-Like Proteins” (Cancers, 2020)
